± gives the half width of the 95% confidence interval.
Assays:
[1] = folding stability dG unfold from chymotrypsin proteolysis; higher = more stable
In short: (§1)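 How resistant each design was to proteolysis was captured as K50, inferred by Bayesian fitting of sequencing counts. Unfolding free energy was then derived relative to a sequence-predicted unfolded-state K50 and a shared folded-state K50, per protease or combined. Digestion used trypsin and chymotrypsin at 11 threefold-diluted concentrations plus a no-protease condition, on mini-proteins under 80 residues without cysteine in a PA-tagged cDNA display construct. Designs were kept only when AlphaFold2 dimer inter-PAE was above 15.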

[2] = folding stability dG unfold from trypsin proteolysis; higher = more stable
In short: as §1

[3] = folding stability dG unfold (combined trypsin and chymotrypsin); higher = more stable
In short: as §1

Sequence | folding stability dG unfold [1] | folding stability dG unfold [2] | folding stability dG unfold [3]
SAGGKIEELAKEIAQEHNIKSVDVQTTGGYPKVNVRFRNPKEGRMYRIKIHVPPDGNIKISIEPQELSAGGS [r16_433_TrROS] | 2.08 ± 0.13 kcal/mol | 1.87 ± 0.034 kcal/mol | 1.92 ± 0.26 kcal/mol
SAGGKIEIHPDTLVVRIEVENKDGSTEEITLELKGLTEEELEDLLKELAAQLPDPDVKVKIVEIRRLPSAGG [r13_29_TrROS_Hall] | 2.49 ± 0.12 kcal/mol | 2.63 ± 0.13 kcal/mol | 2.43 ± 0.13 kcal/mol
SAGGKIIEAIKELLKEGKKLSKEEILKKLKEALRKKAEEEGKPIEEIEITSIHFDKETNEVHIEIKPSAGGS [r16_365_TrROS_Hall] | 2.63 ± 0.1 kcal/mol | 2.48 ± 0.12 kcal/mol | 2.57 ± 0.089 kcal/mol
SAGGKIKLSPEALKALEEAIKKGDKNKTIFIELPDGSRIEVLPDGRIKVINKNGEEYELSEIKKIYPSAGGS [r16_664_TrROS_Hall] | 2.31 ± 0.12 kcal/mol | 2.99 ± 0.2 kcal/mol | 2.58 ± 0.22 kcal/mol
SAGGKILVPLEVLKEIEEAGLVDEVVENPDGPASLTVTSSKPAKLFGKPVIGFVRRGPDGKPVVEIIPSAGG [r13_163_TrMRF] | 0.0505 ± 0.13 kcal/mol | -0.215 ± 0.091 kcal/mol | 0.000122 ± 0.099 kcal/mol
SAGGKIPISPEALKALDEALKNGDKGDTIPIQTPDGHYIVITPNGRMRFHNGNEREFPIGKIKAIIWSAGGS [r16_664_TrROS] | 0.241 ± 0.2 kcal/mol | -0.149 ± 0.14 kcal/mol | 0.156 ± 0.12 kcal/mol
SAGGKIRIDVQYNKNEGYITIRIRFNGNTREIPIPSPKQSPEDVREEAEEIAKYLQEEYNIKEVEIWSAGGS [r16_249_TrROS] | 2.34 ± 0.11 kcal/mol | 2 ± 0.068 kcal/mol | 2.36 ± 0.16 kcal/mol
SAGGKITITVEYNKETNTVRIKITTEDGKEKELEINLENLTEEELKKLAEEIAKKLNPEKIKKVEIYPSAGG [r13_267_TrROS_Hall] | 2.69 ± 0.12 kcal/mol | 1.69 ± 0.11 kcal/mol | 2.33 ± 0.13 kcal/mol
SAGGKKEKKLTLLFSDPNGKLSLVIEVYKKKDGSYWAVFYNPETGKKEEYKFKSLEELEEAVKELLKKSAGG [r13_857_TrMRF] | 4.579 ± 0.045 kcal/mol | 2.8 ± 0.048 kcal/mol | 4.27 ± 0.077 kcal/mol
SAGGKKIEIYKLKDALIIKIPEKGLLILLGNDTAIIFKVKSIKNNGKPKIISSKIISLEEILDLIKSSAGGS [r8_174_TrMRF] | 3.75 ± 0.047 kcal/mol | 2.79 ± 0.12 kcal/mol | 3.31 ± 0.13 kcal/mol
SAGGKKIIIVIGSPEEVERLKELFPDEEVITLPREALENPEVLKELIKELEEKGIEVEIIIPPGVKPSAGGS [r8_376_TrROS_Hall] | 1.94 ± 0.26 kcal/mol | 3.82 ± 0.37 kcal/mol | 3.73 ± 0.44 kcal/mol
SAGGKKITITLTVKTPEDALAAARELAEALGLKIKKIKKVEVTYDEENNLVTVKVEIEIEPLPEEELSAGGS [r16_155_TrROS_Hall] | 4.27 ± 0.1 kcal/mol | 4.69 ± 0.33 kcal/mol | 4.41 ± 0.19 kcal/mol
SAGGKKITVTVTRERTEDGTLRVTVTLRDEETGRTLTLTLTVPRENEEEVEEAAKRLAEELAADPELESAGG [r13_968_TrROS_Hall] | 4.72 ± 0.12 kcal/mol | 2.82 ± 0.064 kcal/mol | 4.42 ± 0.17 kcal/mol
SAGGKKIVIVAPPGMSPEELAELLKKLFPGLEVEVREVSAEELKKLKPGDEVLVIEVDGRLYAVKIKPSAGG [r13_649_TrROS_Hall] | 3.67 ± 0.14 kcal/mol | 2.05 ± 0.11 kcal/mol | 3.21 ± 0.12 kcal/mol
SAGGKKKITIEVEKKEDGKEVKVKIKVDGKEIEITFPENMSKEELLEAAKKLAEENNIEIEEVEIYPSAGGS [r16_753_TrROS_Hall] | 1.54 ± 0.091 kcal/mol | 1.24 ± 0.1 kcal/mol | 1.53 ± 0.15 kcal/mol
SAGGKKKKIIIVLSKEEAEKKAEELKKELEKKGIEVEEVKVVEGMSEEEVKELAEKEKKPVIVIEPKSAGGS [r16_94_TrROS_Hall] | 1.27 ± 0.075 kcal/mol | -0.158 ± 0.077 kcal/mol | 0.813 ± 0.14 kcal/mol
SAGGKKKKKKKIEKKVKTVTIKIKAKTKEEAKKALEELLKKKGLEVEIVKIEYDPETKEITVTVKVKPSAGG [r13_567_TrROS_Hall] | 2.32 ± 0.12 kcal/mol | 1.92 ± 0.044 kcal/mol | 2.14 ± 0.085 kcal/mol
SAGGKKKKLKIKIVIVAKSKEEAEKLAKELAEKLKELGIKEVEIEVEVIELPPPPPPPKPDSPEYKKKSAGG [r13_6_TrROS_Hall] | -0.131 ± 0.36 kcal/mol | -0.453 ± 0.34 kcal/mol | 0.372 ± 0.42 kcal/mol

Sequence | folding stability dG unfold [1] | folding stability dG unfold [2] | folding stability dG unfold [3]
SAGGKKKKPERVEVTIVLPPEILEAIKAGKPLTKEEIAKLLGLPPGAEIKIERREDGYLVIKITLPKSAGGS [r16_679_TrROS_Hall] | 3.19 ± 0.044 kcal/mol | 1.61 ± 0.03 kcal/mol | 2.8 ± 0.069 kcal/mol
SAGGKKKKVKKVKVEVKVTVTLTIKLPKEKIKSKEEAEALAKKLLEELGIEGAKVKIEEKDGYLTLTFSAGG [r13_130_TrROS_Hall] | 4.24 ± 0.2 kcal/mol | 2.66 ± 0.092 kcal/mol | 3.85 ± 0.39 kcal/mol
SAGGKKKPKVKTITITLPKKDIKIGDVITAEEIAKLLGLPKNAKIKVVEVKYDKETGEVTIKIEIYESAGGS [r16_165_TrROS_Hall] | 3.29 ± 0.1 kcal/mol | 1.98 ± 0.045 kcal/mol | 2.96 ± 0.11 kcal/mol
SAGGKKKPPKVKIVSIEVEVFKNENGEKFVKVKIKFEKTNKIITITVPPGMTLEELAKKLNIEIEKESAGGS [r16_676_TrROS_Hall] | 3.04 ± 0.041 kcal/mol | 1.67 ± 0.048 kcal/mol | 2.72 ± 0.088 kcal/mol
SAGGKKKVKITKITSIDKKNGVITLEIEDPKTKKKYKIKAKVVKLKNGKKLLVIEIEVNGKKIKIVFKSAGG [r13_993_TrROS_Hall] | 4.23 ± 0.16 kcal/mol | 2.49 ± 0.15 kcal/mol | 3.81 ± 0.47 kcal/mol
SAGGKKKVTIEIVYDPEEDYVLIRIRIKDPNGNEREITIRMSRDEIKKLLEELKGKITSIEVRRLPPSAGGS [r16_298_TrROS_Hall] | 3.12 ± 0.059 kcal/mol | 3.02 ± 0.1 kcal/mol | 3.14 ± 0.12 kcal/mol
SAGGKKVEILEVSVKPVTLGGKKKYYLNVKVKTPDGKVVNVTMPLEVVKSLGFSIEEFAKAVAKTLLSAGGS [r16_625_TrMRF] | 3.89 ± 0.045 kcal/mol | 2.96 ± 0.071 kcal/mol | 3.61 ± 0.055 kcal/mol
SAGGKKVIEIEITVKPGETITITVPPGARIEIVDLDTGEVREIEIEPGETITLTLPPGSTLLIRIYEPSAGG [r19_78_TrROS_Hall] | 4.04 ± 0.11 kcal/mol | 3.66 ± 0.25 kcal/mol | 4.01 ± 0.23 kcal/mol
SAGGKKVKVEKVATFELEDGSKITITTVTLPNGEKLVLIEITNPNGEKKTIVVSYEDLKEVLEALKKSAGGS [r16_588_TrROS_Hall] | 2.7 ± 0.16 kcal/mol | 2.51 ± 0.086 kcal/mol | 2.65 ± 0.28 kcal/mol
SAGGKKVVITLTAEELEELLKEGKPLTAEEIARRLLPPGAKVTVEVTYDPETKEVTVTVVIEVPEELESAGG [r13_862_TrROS_Hall] | 2.16 ± 0.21 kcal/mol | 2.27 ± 0.13 kcal/mol | 2.22 ± 0.12 kcal/mol
SAGGKKYKVKVVSVEYDKETKEVTVKVEFEDNKVVVEKKVKVKLPPVKIEFSEEDLKEGKVEIKIEFSAGGS [r16_809_TrROS_Hall] | 2.63 ± 0.049 kcal/mol | 1.46 ± 0.11 kcal/mol | 2.27 ± 0.1 kcal/mol
SAGGKKYYLIKITVKTEKKEYTLPDGSKVTVEKTYELTIIVESKEEAEKLAEELAKKYNLEVEIVPLSAGGS [r8_131_TrROS_Hall] | 4.83 ± 0.064 kcal/mol | 2.95 ± 0.13 kcal/mol | 4.51 ± 0.13 kcal/mol
SAGGKLAELKEILKKLGLPKIESIEEDPETGVLRFKASSSKPILVTVPVRSLGDGSRPIEVEIKSTNISAGG [r13_410_JUSTAS] | 0.448 ± 0.32 kcal/mol | 0.227 ± 0.24 kcal/mol | 0.342 ± 0.18 kcal/mol
SAGGKLPKGAKIVSVEFDKETKEIRIKVEFYDKNGKLIKTIEKTIKIKPKPKLSEEEKKKLEEEKKKSAGGS [r16_697_TrROS_Hall] | 1.46 ± 0.28 kcal/mol | 0.96 ± 0.18 kcal/mol | 1.65 ± 0.23 kcal/mol
SAGGKLTITVKVNENGELIATVEITEVVENAKPGDVLTVKAKVVNPKTKETKEIEAKIKVENGKLVLESAGG [r13_208_TrROS_Hall] | 2.33 ± 0.069 kcal/mol | 2.1 ± 0.077 kcal/mol | 2.16 ± 0.12 kcal/mol
SAGGKMTLKDIEIIEVIEKDGEIEVVLIRNKKTNKVIAIPREDLEKLLSLPEDVEVVRLRIKPGEKLSAGGS [r16_61_TrROS_Hall] | 1.34 ± 0.15 kcal/mol | 1.3 ± 0.07 kcal/mol | 1.32 ± 0.18 kcal/mol
SAGGKNLKPIGTVTLTNPKGEKVEIVEFEGPVFVVLTPKDGSKKIVSAEGKSLEEILKELEKEGYEVEPSAG [r5_613_TrMRF] | 2.15 ± 0.081 kcal/mol | 1.22 ± 0.061 kcal/mol | 1.76 ± 0.15 kcal/mol

Source: the supplement of paper PMC12764529
